The target in this assay is SHIVC109P7 gp140 protein (soluble Env) (HIV-1 subtype C (Env of SHIVC109P7)). Nature of the assay: native gel or EMSA. (In EMSA bound probe runs differently from free probe, usually more slowly.)

The substance “SHIVC109P7 gp140 protein (soluble Env) (domain or fragment)” had a stoichiometry N of 3.

As a reminder, the stoichiometry N is the number of molecules, sites or subunits per partner or assembly.

The record behind these values is article PMC11861162.
